Reference: patent US20230322935A1 (published 2023)

T1: Human CD93 on the cell surface (human CD93 expressing CHO cells; HUVEC, U937 and KG1a cells) (human, UniProt Q9NPY3 22-652)
T1 chain: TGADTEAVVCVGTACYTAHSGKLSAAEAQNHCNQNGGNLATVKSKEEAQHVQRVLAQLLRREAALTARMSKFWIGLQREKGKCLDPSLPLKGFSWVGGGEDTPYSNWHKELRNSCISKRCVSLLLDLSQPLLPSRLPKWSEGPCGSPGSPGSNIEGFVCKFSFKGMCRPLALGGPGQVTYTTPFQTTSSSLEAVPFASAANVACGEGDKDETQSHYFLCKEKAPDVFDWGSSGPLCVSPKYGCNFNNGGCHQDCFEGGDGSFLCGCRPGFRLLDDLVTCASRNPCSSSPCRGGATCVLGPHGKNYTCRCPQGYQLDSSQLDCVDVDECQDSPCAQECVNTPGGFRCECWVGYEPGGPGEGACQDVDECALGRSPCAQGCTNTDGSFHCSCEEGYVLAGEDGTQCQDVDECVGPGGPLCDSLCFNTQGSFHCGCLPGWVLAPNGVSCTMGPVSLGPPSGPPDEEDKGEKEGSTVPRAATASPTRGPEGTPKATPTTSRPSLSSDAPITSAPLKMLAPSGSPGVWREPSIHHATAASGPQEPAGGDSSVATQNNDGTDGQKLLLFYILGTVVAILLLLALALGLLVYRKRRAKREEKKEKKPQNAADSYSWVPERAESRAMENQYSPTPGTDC

B1: h16E4 (humanized 16E4, VH4+VL6) (antibody, V domains shown)
VH: QVQLVQSGAEVKKPGASVKVSCKASGYTFTSYWMHWVRQAPGQGLEWMGEIDPSASYTYYNQKFKGRVTMTRDKSSSTVYMELSSLTSEDSAVYYCARSVYYGNKYFDVWGAGTTVTVSS
VL: DIQMTQSPSTLSASVGDRVTITCKASQSVDYAGDSYMNWYQQKPGKAPKLLIYAASNLESGVPSRFSGSGSGTEFTLTISSLQPDDFATYYCQQTNEDPRTFGGGTKLEIK
B2: h7F3 (humanized 7F3, VH3+VL3) (antibody, V domains shown)
VH: QVQLVQSGAEVKKPGASVKVSCKASGYTFTDYEMHWVRQAPGQGLEWMGGIDPETGDTAYNQNFKGRVTMTTDTSTSTAYMELRSLTSDDTAVYYCTNYGNLYYYAMDYWGQGTSVTVSS
VL: EIVLTQSPSSLSASVGDRVTITCRASSSVSSSYLHWYQQKPGKAPKLLIYSTSNLAFGVPSRFSGSGSGTSYTFTISSLQPEDIATYYCQQYSGYPLTFGSGTKLEIK

Legend:
[1] = molecular target: T1, Human CD93 on the cell surface (human …); test: FACS blocking of MMRN2 binding; FIG. 45
[2] = molecular target: T1, Human CD93 on the cell surface (human …); test: FACS blocking of hIGFBP7-His binding; HUVEC cells

Binder	IC50 [1] [nM]	IC50 [2] [nM]
B1	225	–
B2	–	1
